Source: article doi:10.1101/2022.04.29.490041

Target: NSF_(E326Q):GFP (dominant-negative variant of NSF, GFP-tagged) (Arabidopsis thaliana) (UniProt Q9M0Y8)
Test: co-IP

Sequence of UniProt Q9M0Y8 (Q9M0Y8 whole entry E326Q): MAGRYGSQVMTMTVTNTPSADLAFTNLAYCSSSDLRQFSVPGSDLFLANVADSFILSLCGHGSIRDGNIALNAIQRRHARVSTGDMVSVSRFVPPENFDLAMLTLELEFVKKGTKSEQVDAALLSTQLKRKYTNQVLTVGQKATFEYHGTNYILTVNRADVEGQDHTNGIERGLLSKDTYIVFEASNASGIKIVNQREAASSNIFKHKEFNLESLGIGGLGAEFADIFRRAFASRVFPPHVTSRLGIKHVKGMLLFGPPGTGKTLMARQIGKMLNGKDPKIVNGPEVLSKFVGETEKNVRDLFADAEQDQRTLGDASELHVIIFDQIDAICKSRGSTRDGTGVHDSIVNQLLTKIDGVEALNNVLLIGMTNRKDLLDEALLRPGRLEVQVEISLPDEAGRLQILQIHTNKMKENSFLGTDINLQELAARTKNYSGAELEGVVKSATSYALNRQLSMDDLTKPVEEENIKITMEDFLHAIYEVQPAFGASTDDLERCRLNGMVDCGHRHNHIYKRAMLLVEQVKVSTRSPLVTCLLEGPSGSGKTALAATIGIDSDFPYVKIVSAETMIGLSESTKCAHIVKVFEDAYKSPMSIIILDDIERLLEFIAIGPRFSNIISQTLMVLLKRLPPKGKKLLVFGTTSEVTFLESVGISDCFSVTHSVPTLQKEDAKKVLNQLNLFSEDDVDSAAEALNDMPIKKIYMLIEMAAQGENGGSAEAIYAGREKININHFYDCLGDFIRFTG

- fold increase of co-precipitation relative to wild-type NSF: 38 fold
Substance: KNOLLE (cytokinesis-specific Qa-SNARE) (natural protein)
